Results as given in the DeepSol protein solubility set.

Assay: soluble on expression in E. coli; label from the status in PepcDB or PDB records

Sequence | soluble on expression in E. coli
HSQRVIRELDEHGFWSAMIPQWEHIRGRMPRESVHIHTIDVHSMVVTANCATQSIRVARPDLLFLAALFHDIGKGYGRRHEEVGAEFVVDMATTLRLNPSDTQIVETLVAQHTIIPHIVGRYNPTSTEAIDKLLDAVNYDLLTLDLLEALVEADAQGTAPGVWSAVLRYGTRELCAQARQR | not soluble
ICNKYKNINVNMKKNNDDTWTDLVKNSSDINKGVLLPPRRKNLFLKIDESDICKYKRDPKLFKDFIYSSAISEVERLKKVYGEAKTKVVHAMKYSFADIGSIIKGDDMMENNSSDKIGKILGDGVGQNEKRKKWWDMNKYHIWESMLSGYKHAYGNISENDRKMLDIPNNDDEHQFLRWFQEWTENFCTKRNELYENMVTACNSAKCNTSNGSVDKKECTEACKNYSNFILIKKKEYQSLNSQYDMNYKETKAEKKESPEYFKDKCNGECSCLSEYFKDETRWKNPYETLDDTEVKNNCMCK | soluble
IDSGLSPSVLMASNSGRRSAPPLNLTGLPGTEKLNEKEKELCQVVRLVPGAYLEYKSALLNECHKQGGLRLAQARALIKIDVNKTRKIYDFLIREGYITKA | soluble
IFFMEAMSPQQETLGGQPGRSSSLTGVSRLAGGSCTKKKMKTLAERRRSAPSLILDKALQKRPTTRDSPSASVDTCTFLSSLVCSNRTLLIDGRAELKRGLQRQERHLFLFNDLFVVAKIKYNNNFKIKNKIKLTDMWTASCVDEVGEGNTNAMKSFVLGWPTVNFVATFSSPEQKDKWLSLLQRYINLEKEKDYPKSIPLKIFAKDIGNCAYSKTITVMNSDTANEVINMSLPMLGITGSERDYQLWVNSGKEEAPYPLIGHEYPYGIKMSHLRDSALLTPGSKDSTTPFNLQEPFLMEQLPREMQCQFILKPSRLAAAQQLSDSGHKTFKRRRSIINWAFWRGSSTHLDNLPSSPTSPMPGQLFGISLPNICENDNLPKPVLDMLFFLNQKGPLTKGIFRQSANVKSCRELKEKLNSGVEVHLDCESIFVIASVLKDFLRNIPGSIFSSDLYDHWVSVMDQGNDEEKINTVQRLLDQLPRANVVLLRYLFGVLHNIEQHSSSNQMTAFNLAVCVAPSILWPPASSSPELENEFTKKVSLLIQFLIENCLRIFGEEITSLFREVSVRCDTRENASDISCFQLNDSSYDSLENELNEDVDAPCSDLVKKLGQGSRSMDSVLTLSDYDLDQPEVEGLLTLSDFDLAHSKDEDVQMKRPLESKPVNILVYTKIPLRDHARAPSAMCTPSYLSTAAANAAKSLRRHRRCSEPSIDYLDSKLSYLREFYQKKLRKSSCDAILSQKDEDYLKQNQPLQEEGKTCFKQSLVTGTDVSKKNATTQNTKKKSLSGSEGNHVKLFPKSKPVAISVASYSPMSSQDHSKNQPFDVNTSGYSPPHTADALKGPRTHRRCSEPNIEDQNRKLTYLRGIYSKKQHKTSCEAGLLHGEEDYLKRHKSLQMEGQKLINQSLVMGIEVGKSSATNQNTEKVLPPRLNLCPRTSYSSLSSPGTSPSGSSVSSQDSAFSQISEHSVFTPTETSSPIDCTFQAQRKREDLSPDFSNASHVSGMPGPSSGQACSRPAYTKKDTMEWHSQMHSVTLHPSTWLRNGVASLKNWSLKKKAKAARPEEEKIASPKGPLEPPPHASGVPEANSLQEEQKDLPLRAAEGLSPVQSAQRCSSSPFQDSERHCSSPFSLVESRLKLCMKSHEEIEPGSQSSSGSLPWERASASSWTLEDATSPDSGPTVVCDIEDRYLTKDI | soluble
IFSEINIDPTKRVLLYAPTWKTNSSDDDIFPINEQLLKHYNVIYKGHVESKNDLVPEGVIIPPNNIETQDLIIISDVVLTDYSSIIFDALTVDKKGCLYTPNHSQYVEERGVYQDVMDTLKPIWYTDAELLINDLITDSIPQLNNKYTNKNNQSFEYISKLISN | not soluble
IGEFSYSLNGNLSYAHNRILSRTQADNTLPWQSVLGSSVGELWGLKALGLYQSEEEIANSPQVSWNTPRVGDIKYADINGDGKIDSNDRIKISRGIRPEMMFALMADANYKGFDLSVQFQGAALCDKMLQYSWQDLNGATDMTPMTRPWYANWDNAPLYLVENSWRPDHTNAEYPRLTVSSVSHSNNAQQSDFWKRNGAYLRLKNVTLGYTLPKAWTNKMGLSNIRVYANGTNLLTFTDFKYIDPESTNVATGYYPQQRTFSFGIDVRF | not soluble
IGQVNLQLRANFTYQTTDIIDKDEAANELWYKMDKGFQLNQSRGLIALGLFKDQDEIDRSPKQTSNRPILPGDIKYKDVNGDGVINDDDIVPLGYREVPGLQYGVGLSANWRNWNLSVLFQGTGKCDFFIGGNGPHAFRSERYGNILQAMVDGNRWIPKEISGTTATENPNADWPLLTYGNNDNNNRKSTFWLYERKYLRLRNVEVSYDFPQTWTRKFFVSNLRLGFVGQNLLTWAPFKMWDPEGTREDGSNYPINKTFSCYLQISF | not soluble
ILRTKAQFVAMNEASLMQINHEWLQGTQSKQVTSQGETWQIDKRAESTISPNVQRIEIQVSLFDTQQNKVEAGITNLVFFNYPQKENAS | not soluble
INKINLNKPIIENKNNVDVSIKRYNNFVDIARLSIQKHFEHLSNDQKDSHVNNMEYMQKFVQGLQENRNISLSKYQENKAVMDLKYHLQKVYANYLSQEEN | soluble
IPEEGGDELGAMARTLSLFRESAIEKKKLEDEAERQRRTIAAALEVISDGFVLYDSEDRILVANSKYCEIFPSHKPNTLRGRSFREIVEQNLEMGQVDLEGKSPQEWVDERVRLHRDPAGLVDEKRFGDKWVRISKRKIPD | not soluble
IRQTYEQSCGASSLATLLNILDDQKKFDELELLKIMSGQELYTDMVSFADLNDAVKKLGFQSNSYQINRENLDKLVNIPMLVKIEDDPRFPHFVIIINHKGNYLQVLDPSHGEYISSKSQFFSIWDRYNKGGYALIVAP | not soluble
ISEFGSCPPGQFRCSEPPGAHGECYPQDWLCDGHPDCDDGRDEWGCG | soluble
ISRLLKNNLMDDVFNTENESFAQETRLIENEYSINLPTRFYYKKKWNDGWINVVNPFRASMVLGTPGSGKSYAIVNNYIKQQIEKGFAVYIYDYKFPDLSEIAYNHLISYLDGYKVKPKFYMINFDDPRKSHRCNPINPAFMTDISDAYEASYTIMLNLNRSWITKQGDFFVESPIILLASIIWFLKIYQGGKYCTFPHAIEFLNKKYADTFTILTSYPELENYLSPFMDAWESNAQDQLQGQLASAKIPLSRMISPALYWVMTGDDFSLDINNPEEPKILVVGNNPDRQNIYSCALGLYNSRIVKLINKKHQLKSSVIIDELPTIYFRGLDNLIATARSNKVAVCLGFQDFSQLRRDYGDKESKVIENTVGNIFSGQVVSETAKTLSDRFGKVLQKRQSMTINRNDKSTSISTQMDSLIPPSKISNLTQGMFVGAVSDNFDERIEQKIFHAEIMVDNEKVKRETASYKKLPQIIDFRDEDGNDRMQEEIQANYNRVKQEVQQIITDEIERIKNDPNLQNLLKHE | not soluble
ITEDEIRTLMEQGADEGVFDRAEQELVENIFRLDNRKASAVMTPRKDVVILDLEDGPERNRELLLGHPFSHFPVCRGDTDQVIGMLNAKTLLDRLLRGEALDFAAELSPPLYVPSTCSLMQLLEQFKQARSHSALVVDEYGELEGLVSINNVMEAIVGDLPAIDGEEDEIV | not soluble
ITEEEAKLFTEQLGDIIQFAEQLNELDTEGVEPTSHVLDMKNVLREDKPEKGLPVEDVLKNAPDHEDGQIR | not soluble
IVMQFPREEYFAPGHRGCAGCGAAIVARLLLKVAGKDTIITNATGCLEVMTTPYPETSWRVPWIHTAFENAAATASGIEAAVKALKRKRGKFADKKINVIAIGGDGGTADIGFQALSGAMERGHDILYIMYDNEAYMNTGIQRSSSTPFMAATTTSPAGSKIRGEDRPKKDMTMIMAAHGIPYVATACISYPEDFMRKVKKALSIEGPKFIQVLQPCTTGWGYPPEKTIEIGRLAVETGIFPLYEIENGEFRITYKPAKRKPVREYLKMQKRYRHLTDEDIERIQKYIDEKCKLLGL | not soluble
IVVLHGLYMHGLVMKPLASRLRRKGHSVQVVSYNSVRINEALLFKRIRNCLSETEKNVIVGHSLGGILAVHFVNSHNDKHTPIDSIVTIGSPLQGASIAKEIQNRKLGFILGNSKEQGLVDVNQLTVDCPIGSIAGTLPIGIRSSIIRDRVPSDGTVTVEETVLPELKDHLCLNYSHTSLIYAKQTVEQIDYFIHHHEFKRV | not soluble
